Results taken from patent US11726088B2, “Sirtuin 4 (SIRT4) lipoamidase activity and uses thereof” (THE TRUSTEES OF PRINCETON UNIVERSITY, priority 2014, dated 2023).
Primed or numbered codes have the meaning given here. Ends that are not written are not given here. * marks the point of attachment. lipoyl″ = O=C(CCCC[C@@H]1CCSS1)*

Assays:
SIRT4 mRNA = assay: SIRT4 knock-down efficiency by qRT-PCR in MRC5 cells stably expressing shRNA; format: cell-based, human; details: MRC5 fibroblasts, mRNA level by qPCR; listed as construct #5
Description: SIRT4 shRNA expression. pLKO.1-puro vectors containing either non-targeting control shRNA or SIRT4-targeting shRNA were purchased from Sigma-Aldrich and are listed in FIG. 11. To generate MRC5 cells stably expressing each of the shRNA constructs, HEK293T cells were co-transfected with appropriate pLKO.1 vector, pCMVΔR8.2 (Addgene, plasmid #12263) and pMD2.G (Addgene, plasmid #12259) using FuGENE 6. Media containing lentivirus particles were used to transduce MRC5 cells, which were subsequently selected with 2 μg/mL puromycin (InvivoGen, cat. #ant-pr-1). Knockdown efficiency was measured by qRT-PCR and western blotting.
qRT-PCR analysis. For qRT-PCR analysis, MRC5 cells were collected and washed with PBS. Total RNA was isolated from cell pellets using RNeasy Mini Kit (Qiagen, cat. #74104) and the concentration/purity determined by measuring the absorbance 260/280 nm using NanoDrop Spectrophotometer (Thermo Fisher Scientific). For cDNA synthesis, 1 μg of RNA from each sample was first treated with DNase I (Life Technologies, cat. #18068015) and then used as a template in the RETROscript kit (Life Technologies, cat. #AM1710). The cDNAs were mixed with appropriate primers listed in FIG. 12 and Power SYBR green PCR master mix (Life Technologies, cat. #4368706) for qRT-PCR on ABI 7900HT Real-Time Thermocycler (Applied Biosystems). […]

SIRT4 [1] = target: T1, SIRT4 (Homo sapiens, UniProt Q9Y6E7); assay: LC-MS-based in vitro peptide deacylation assay; format: biochemical; details: 5 μM SIRT4, 10 uM peptide, with NAD, 1 hr at 37° C.
T1 construct: 6xHis (followed by human rhinovirus 3C protease site) (N); made in house; host or cells: E. coli BL21(DE3), co-expressed with GroEL and GroES
T1 sequence (Q9Y6E7 33-314): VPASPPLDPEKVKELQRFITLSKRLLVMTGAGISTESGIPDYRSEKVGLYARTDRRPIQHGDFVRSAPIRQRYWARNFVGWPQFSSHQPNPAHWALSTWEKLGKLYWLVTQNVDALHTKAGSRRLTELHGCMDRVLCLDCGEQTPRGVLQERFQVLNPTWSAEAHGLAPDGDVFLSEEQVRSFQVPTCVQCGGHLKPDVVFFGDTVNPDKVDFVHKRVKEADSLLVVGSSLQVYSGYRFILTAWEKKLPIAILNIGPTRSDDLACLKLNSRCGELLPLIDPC
Description: Recombinant SIRT4 protein expression and purification. N-terminally truncated human Sirt4 (33-314 of SEQ ID NO: 2) was cloned into a derivative of pET-15b containing a human rhinovirus 3C Protease cleavage site in place of its thrombin cleavage site. 6×His-Sirt4 was co-expressed with GroEL and GroES in BL21(DE3) E. coli in order to promote proper protein folding. Protein was purified using immobilized-metal affinity chromatography (IMAC) followed by anion-exchange chromatography to remove associated folding chaperones. For some experiments the His-tag was removed using 3C protease. Protein was concentrated, snap frozen in N2(l), and stored at −80° C.
LC-MS-based in vitro peptide deacylation assay. The ability of SIRT4 to hydrolyze various acyl-lysine modifications was measured using LC-MS. In 20 μL reaction volume, 10 uM peptide (lipoyl-, biotinyl-, or acetyl-lysine) was incubated with increasing concentrations of SIRT4 (0.5 μM, 2.5 μM, and 5 μM), with or without NAD, in 50 mM TrisHCl, pH 8, 137 mM NaCl, 2.7 mM KCl and 1 mM MgCl2, for 1 hr at 37° C. Reactions were quenched with 25 μL of 2% TFA and an internal control peptide was spiked in to monitor for run-to-run variability. Reaction products were desalted, eluted, concentrated and analyzed by nano-LC-MS/MS, as above, but altered LC gradients. A 30 min linear gradient from 4-40% B was used for all peptides, except for lipoyl-lysine biological peptides, which used a 12-70% B linear gradient. Data were imported into Skyline software (version 2.1) to obtain precursor extracted ion chromatographams (XICs) using the following settings: Isotope Count, 3; precursor mass analyzer, Orbitrap; Resolving power, 60,000 @ 400 Th. The retention times of substrate (modified) and product (unmodified) peptides were confirmed by fragmentation spectra and peak integration boundaries were manually inspected. Three biological replicates were analyzed for each reaction.
The lipoamide cofactor bound to E2 (transferase enzymes) is required for dehydrogenase complex activity (FIG. 1b). Given that other mitochondrial SIRTs can hydrolyze various […] group lysine modifications^3,4 and that all PDHC components were present in our SIRT4 isolation, we speculated that E2 dehydrogenase components may be biological substrates of SIRT4, and that SIRT4 may directly hydrolyze the lipoamid modification. To test this we screened the in vitro activity of recombinant SIRT4 against differentially-modified synthetic peptides (FIG. 10). Firstly, SIRT4 activity towards acyl-modified H3K9 peptides (SEQ ID NOs: 3-5) was measured using a liquid-chromatography (LC)-MS-based deacylation assay. SIRT4 was incubated with H3K9 peptides modified with acetyl-lysine (SEQ ID NO: 5), biotinyl-lysine (SEQ ID NO: 4) or lipoyl-lysine (SEQ ID NO: 3), in the presence or absence of NAD. Following reaction, the remaining unreacted substrates and newly generated unmodified peptides were identified and quantified by LC-MS (FIG. 2A, 2G-2I and FIG. 5). […] To compare the relative preference of SIRT4 for these different substrates, we used extracted ion chromatograms to quantify unreacted substrate (S) and product (P) amounts from all reactions, and represented the percentage of unmodified peptide generated (FIG. 2H). […] The relative amount of unmodified product generated using 5 μM SIRT4 was 11% (lipoyl—SEQ ID NO: 3), 3% (biotinyl—SEQ ID NO: 4) and 0.3% (acetyl—[…]) (FIG. 2B and FIG. 2H, H3K9 substrates). […]

SIRT3 = target: T2, SIRT3 (Homo sapiens, UniProt Q9NTG7); assay: Steady-state kinetic analysis of SIRT3 with DLAT K259 peptides; format: biochemical
T2 construct: purchased Sigma SRP0117-100UG
T2 sequence (Q9NTG7 1-399): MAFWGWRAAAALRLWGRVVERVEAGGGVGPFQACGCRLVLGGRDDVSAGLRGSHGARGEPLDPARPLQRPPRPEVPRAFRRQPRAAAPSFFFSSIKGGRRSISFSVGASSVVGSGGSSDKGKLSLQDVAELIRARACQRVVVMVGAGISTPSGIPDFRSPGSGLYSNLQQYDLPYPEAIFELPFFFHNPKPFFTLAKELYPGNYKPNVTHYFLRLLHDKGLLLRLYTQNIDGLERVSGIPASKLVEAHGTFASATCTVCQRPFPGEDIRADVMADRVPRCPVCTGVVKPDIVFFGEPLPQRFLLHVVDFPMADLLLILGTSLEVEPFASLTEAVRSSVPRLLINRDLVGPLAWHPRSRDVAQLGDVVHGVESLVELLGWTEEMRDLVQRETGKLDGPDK

SIRT4 [2] = target: T1, SIRT4; assay: HPLC-based SIRT4 kinetics assays (steady-state, acyl-modified peptide substrates); format: biochemical
Description: Recombinant SIRT4 protein expression and purification. N-terminally truncated human Sirt4 (33-314 of SEQ ID NO: 2) was cloned into a derivative of pET-15b containing a human rhinovirus 3C Protease cleavage site in place of its thrombin cleavage site. 6×His-Sirt4 was co-expressed with GroEL and GroES in BL21(DE3) E. coli in order to promote proper protein folding. Protein was purified using immobilized-metal affinity chromatography (IMAC) followed by anion-exchange chromatography to remove associated folding chaperones. For some experiments the His-tag was removed using 3C protease. Protein was concentrated, snap frozen in N2(l), and stored at −80° C. HPLC-based SIRT4 kinetics assays. SIRT4 kinetic assays were essentially performed as described by others^3,4. Briefly, enzyme reactions (20 μL) were performed in 50 mM Tris, pH 8.0, containing 5 μM recombinant SIRT4 and varying concentrations (0 to 2500 μM) of H3K9- or DLAT-modified peptides with either acetyl-lysine, biotinyl-lysine, or lipoyl-lysine. Reactions were initiated by addition of NAD (1 mM) and incubated at 25° C. for between 30-120 min, depending on substrate-specific reaction rates and to maintain steady-state conditions. Reactions were quenched with formic acid to a final concentration of 0.5% (v/v) and analyzed by HPLC-UV detection (Ultimate 3000 RSLC/VWD-3400). Substrate and product were separated by reverse-phase chromatography (Acclaim PepMap RSLC, 75 μm×15 cm) at 0.75 μL/min. Product concentration was measured by peak integration of A280 signals. Initial reaction velocities were determined in at least duplicate and fit to a modified Briggs-Haldane equation, which substituted kcat×[SIRT4] for Vmax and allowed determination of kinetic parameters, kcat, Km and kcat/Km and their associated error (±SEM), using GraphPad Prism 5. SIRT4's catalytic efficiency towards the various acyl-modified peptide substrates was assessed (Table 1 below).

SIRT5 = target: T3, SIRT5 (Homo sapiens, UniProt Q9NXA8); assay: Kinetic analysis of SIRT5 with DLAT K259 peptides; format: biochemical
T3 construct: purchased Sigma SRP0119-100UG
T3 sequence (Q9NXA8 37-310): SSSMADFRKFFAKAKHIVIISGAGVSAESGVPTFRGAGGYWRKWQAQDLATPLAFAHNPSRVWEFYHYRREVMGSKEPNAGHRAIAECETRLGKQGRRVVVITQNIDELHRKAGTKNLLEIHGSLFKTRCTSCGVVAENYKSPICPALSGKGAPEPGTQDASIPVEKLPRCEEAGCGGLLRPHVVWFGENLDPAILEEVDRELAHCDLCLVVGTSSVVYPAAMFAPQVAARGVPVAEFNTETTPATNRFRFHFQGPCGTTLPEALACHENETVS

[3] = SIRT4 enzyme concentration = 5 μM, NAD 1 mM, 25° C.

Row | Substance | SIRT4 knock-down (SIRT4 mRNA) [%] | relative amount of unmodified product generated (SIRT4 [1]) [%] | SIRT3 efficiency, fold lower than for DLAT acetyl (SIRT3) [fold] | SIRT3 enzymatic activity (SIRT3) | Km (SIRT4 [2]; [3]) [µM] | kcat (SIRT4 [2]; [3]) [s⁻¹] | increase in efficiency compared to H3K9 lipoyl (SIRT4 [2]; another experiment (Table 1)) [fold] | increased efficiency compared to H3K9 lipoyl (SIRT4 [2]; first experiment) [fold] | efficiency of hydrolysis by SIRT4, fold more than deacetylation of MCD (SIRT4 [2]; versus MCD acetyl) [fold] | SIRT5 activity (SIRT5)
1 | shSIRT4 #5: SIRT4-targeting shRNA construct in pLKO.1-puro vector, purchased from Sigma-Aldrich (DNA CCGGACAGGGACTTTCACTTGAATCCTCGAGGATTCAAGTGAAAGTCCCTGTTTTTTG) | > 80 | – | – | – | – | – | – | – | – | –
2 | DLAT K259 Lipoyl: synthetic DLAT K259 peptide with lipoyl-lysine (SEQ ID NO: 8) (EIETDK(lipoyl″)ATIGWW) | – | 33 | 13 | some enzymatic activity | 239 ± 51 | 0.0016 ± 0.0001 | 3.3 | 3.5 | ~1270 | no activity was detected
